The chains are these.
B1: Zinc finger homeobox protein 3, residues 2643 to 2698; numbered along this chain, Q15911 (parent)
chain: RLRTTITPEQLEILYQKYLLDSNPTRKMLDHIAHEVGLKKRVVQVWFQNTRARERK

± gives the uncertainty stated by the source.

Variants of B1 are the subject of the data set. The experiment in a line: abundance fitness (aPCA) (normalised: wild type 0, dead -1); higher = more abundant; growth selection in yeast, the domain comes from the species named. Conditions: Homo sapiens.
Consider RLRTTITPEQLNILYQKYLLDSNPTRKMLDHIAHEVGLKKRVVQVWFQNTRARERK, for which the abundance fitness was -0.074 ± 0.18. As to RLRTTITPEQLLILYQKYLLDSNPTRKMLDHIAHEVGLKKRVVQVWFQNTRARERK, the abundance fitness was -0.188 ± 0.086. The value for RLRTTITPEQLFILYQKYLLDSNPTRKMLDHIAHEVGLKKRVVQVWFQNTRARERK was -0.282 ± 0.13. Then RLRTTITPEQLWILYQKYLLDSNPTRKMLDHIAHEVGLKKRVVQVWFQNTRARERK, with -0.749 ± 0.12; and RLRTTITPEQLSILYQKYLLDSNPTRKMLDHIAHEVGLKKRVVQVWFQNTRARERK, with -0.114 ± 0.088. Then RLRTTITPEQLTILYQKYLLDSNPTRKMLDHIAHEVGLKKRVVQVWFQNTRARERK, with 0.041 ± 0.1; and RLRTTITPEQLYILYQKYLLDSNPTRKMLDHIAHEVGLKKRVVQVWFQNTRARERK, with -0.454 ± 0.15; and RLRTTITPEQLMILYQKYLLDSNPTRKMLDHIAHEVGLKKRVVQVWFQNTRARERK, with 0.335 ± 0.11.

In the case of RLRTTITPEQLHILYQKYLLDSNPTRKMLDHIAHEVGLKKRVVQVWFQNTRARERK, the abundance fitness is -0.069 ± 0.16. Then RLRTTITPEQLKILYQKYLLDSNPTRKMLDHIAHEVGLKKRVVQVWFQNTRARERK, with -0.625 ± 0.21; and RLRTTITPEQLAILYQKYLLDSNPTRKMLDHIAHEVGLKKRVVQVWFQNTRARERK, with -0.07 ± 0.082; and RLRTTITPEQLVILYQKYLLDSNPTRKMLDHIAHEVGLKKRVVQVWFQNTRARERK, with -0.396 ± 0.088. Then RLRTTITPEQLCILYQKYLLDSNPTRKMLDHIAHEVGLKKRVVQVWFQNTRARERK, with -0.111 ± 0.11. Then RLRTTITPEQLIILYQKYLLDSNPTRKMLDHIAHEVGLKKRVVQVWFQNTRARERK, with -0.438 ± 0.19; and RLRTTITPEQLGILYQKYLLDSNPTRKMLDHIAHEVGLKKRVVQVWFQNTRARERK, with -0.228 ± 0.077. For the variant RLRTTITPEQLDILYQKYLLDSNPTRKMLDHIAHEVGLKKRVVQVWFQNTRARERK, the abundance fitness was -0.109 ± 0.12. The value for RLRTTITPEQLPILYQKYLLDSNPTRKMLDHIAHEVGLKKRVVQVWFQNTRARERK was -0.87 ± 0.15; that for RLRTTITPEQLQILYQKYLLDSNPTRKMLDHIAHEVGLKKRVVQVWFQNTRARERK was -0.049 ± 0.13; that for RLRTTITPEQLEILYQDYLLDSNPTRKMLDHIAHEVGLKKRVVQVWFQNTRARERK was -0.651 ± 0.2. The value for RLRTTITPEQLEILYQGYLLDSNPTRKMLDHIAHEVGLKKRVVQVWFQNTRARERK was -0.528 ± 0.083. The value for RLRTTITPEQLEILYQAYLLDSNPTRKMLDHIAHEVGLKKRVVQVWFQNTRARERK was -0.08 ± 0.093; that for RLRTTITPEQLEILYQNYLLDSNPTRKMLDHIAHEVGLKKRVVQVWFQNTRARERK was 0.228 ± 0.15; that for RLRTTITPEQLEILYQMYLLDSNPTRKMLDHIAHEVGLKKRVVQVWFQNTRARERK was 0.114 ± 0.13. Take RLRTTITPEQLEILYQIYLLDSNPTRKMLDHIAHEVGLKKRVVQVWFQNTRARERK: the abundance fitness is -0.628 ± 0.44. Consider RLRTTITPEQLEILYQFYLLDSNPTRKMLDHIAHEVGLKKRVVQVWFQNTRARERK, for which the abundance fitness was 0.528 ± 0.31. The value for RLRTTITPEQLEILYQLYLLDSNPTRKMLDHIAHEVGLKKRVVQVWFQNTRARERK was -0.303 ± 0.099. The value for RLRTTITPEQLEILYQEYLLDSNPTRKMLDHIAHEVGLKKRVVQVWFQNTRARERK was 0.007 ± 0.12; that for RLRTTITPEQLESLYQKYLLDSNPTRKMLDHIAHEVGLKKRVVQVWFQNTRARERK was -0.184 ± 0.084. Then RLRTTITPEQLEALYQKYLLDSNPTRKMLDHIAHEVGLKKRVVQVWFQNTRARERK, with -0.079 ± 0.098. On to RLRTTITPEQLELLYQKYLLDSNPTRKMLDHIAHEVGLKKRVVQVWFQNTRARERK, for which the abundance fitness was -0.084 ± 0.085. Then RLRTTITPEQLEMLYQKYLLDSNPTRKMLDHIAHEVGLKKRVVQVWFQNTRARERK, with -0.253 ± 0.13; and RLRTTITPEQLEGLYQKYLLDSNPTRKMLDHIAHEVGLKKRVVQVWFQNTRARERK, with -0.24 ± 0.077; and RLRTTITPEQLEYLYQKYLLDSNPTRKMLDHIAHEVGLKKRVVQVWFQNTRARERK, with 0.012 ± 0.14.

On to RLRTTITPEQLECLYQKYLLDSNPTRKMLDHIAHEVGLKKRVVQVWFQNTRARERK, for which the abundance fitness was -0.058 ± 0.094. Then RLRTTITPEQLEVLYQKYLLDSNPTRKMLDHIAHEVGLKKRVVQVWFQNTRARERK, with 0.057 ± 0.088. For the variant RLRTTITPEQLEKLYQKYLLDSNPTRKMLDHIAHEVGLKKRVVQVWFQNTRARERK, the abundance fitness is -0.096 ± 0.12. The value for RLRTTITPEQLEWLYQKYLLDSNPTRKMLDHIAHEVGLKKRVVQVWFQNTRARERK was -0.172 ± 0.091; that for RLRTTITPEQLEFLYQKYLLDSNPTRKMLDHIAHEVGLKKRVVQVWFQNTRARERK was 0.119 ± 0.14. The value for RLRTTITPEQLETLYQKYLLDSNPTRKMLDHIAHEVGLKKRVVQVWFQNTRARERK was -0.01 ± 0.1; that for RLRTTITPEQLEQLYQKYLLDSNPTRKMLDHIAHEVGLKKRVVQVWFQNTRARERK was -0.095 ± 0.12. Consider RLRTTITPEQLERLYQKYLLDSNPTRKMLDHIAHEVGLKKRVVQVWFQNTRARERK, for which the abundance fitness is -0.123 ± 0.082. In the case of RLRTTITPEQLENLYQKYLLDSNPTRKMLDHIAHEVGLKKRVVQVWFQNTRARERK, the abundance fitness was -0.287 ± 0.16.

With RLRTTITPEQLEELYQKYLLDSNPTRKMLDHIAHEVGLKKRVVQVWFQNTRARERK, the abundance fitness is -0.339 ± 0.12.

Turning to RLRTTITPEQLEPLYQKYLLDSNPTRKMLDHIAHEVGLKKRVVQVWFQNTRARERK, the abundance fitness is -0.951 ± 0.17. For the variant RLRTTITPEQLEHLYQKYLLDSNPTRKMLDHIAHEVGLKKRVVQVWFQNTRARERK, the abundance fitness came out at 0.067 ± 0.18. Regarding RLRTTITPEQLEILWQKYLLDSNPTRKMLDHIAHEVGLKKRVVQVWFQNTRARERK, the abundance fitness was determined as 0.072 ± 0.096.

As to RLRTTITPEQLEILAQKYLLDSNPTRKMLDHIAHEVGLKKRVVQVWFQNTRARERK, the abundance fitness is -0.202 ± 0.096.

The values above are taken from the Human Domainome abundance scans (Beltran et al. 2025).
